Data published in paper doi:10.1101/2024.07.02.601760, “Multi-dimensional demarcation of phylogenetic groups of plant 14-3-3 isoforms using biochemical signatures” (bioRxiv, 2024).
Changes are numbered by the printed parent chain. In names and notes the source's numbering stands.

B1: Arabidopsis thaliana 14-3-3 chi (natural protein, UniProt P42643 1-267, looked up)
chain: MATPGASSARDEFVYMAKLAEQAERYEEMVEFMEKVAKAVDKDELTVEERNLLSVAYKNVIGARRASWRIISSIEQKEESRGNDDHVSLIRDYRSKIETELSDICDGILKLLDTILVPAAASGDSKVFYLKMKGDYHRYLAEFKSGQERKDAAEHTLTAYKAAQDIANSELAPTHPIRLGLALNFSVFYYEILNSPDRACNLAKQAFDEAIAELDTLGEESYKDSTLIMQLLRDNLTLWTSDMQDDVADDIKEAAPAAAKPADEQQS
notes: 14-3-3 chi, Arabidopsis thaliana, non-epsilon group; source: E. coli BL21(DE3), purified (IMAC, thrombin cleavage of the His6-tag, subtractive IMAC, preparative SEC; aliquots before preparative SEC for SEC-MALS)
B2: Arabidopsis thaliana 14-3-3 phi (natural protein, UniProt P46077 1-267, looked up)
chain: MAAPPASSSAREEFVYLAKLAEQAERYEEMVEFMEKVAEAVDKDELTVEERNLLSVAYKNVIGARRASWRIISSIEQKEESRGNDDHVTTIRDYRSKIESELSKICDGILKLLDTRLVPASANGDSKVFYLKMKGDYHRYLAEFKTGQERKDAAEHTLTAYKAAQDIANAELAPTHPIRLGLALNFSVFYYEILNSPDRACNLAKQAFDEAIAELDTLGEESYKDSTLIMQLLRDNLTLWTSDMQDESPEEIKEAAAPKPAEEQKEI
notes: 14-3-3 phi, Arabidopsis thaliana, non-epsilon group; construct provided by Prof; Robert J. Ferl; source: E. coli C41(DE3), purified (IMAC, thrombin cleavage of the His6-tag, subtractive IMAC, preparative SEC; aliquots before preparative SEC for SEC-MALS)
B3: Arabidopsis thaliana 14-3-3 lambda (natural protein, UniProt P48349 1-248, looked up)
chain: MAATLGRDQYVYMAKLAEQAERYEEMVQFMEQLVTGATPAEELTVEERNLLSVAYKNVIGSLRAAWRIVSSIEQKEESRKNDEHVSLVKDYRSKVESELSSVCSGILKLLDSHLIPSAGASESKVFYLKMKGDYHRYMAEFKSGDERKTAAEDTMLAYKAAQDIAAADMAPTHPIRLGLALNFSVFYYEILNSSDKACNMAKQAFEEAIAELDTLGEESYKDSTLIMQLLRDNLTLWTSDMQEQMDEA
notes: 14-3-3 lambda, Arabidopsis thaliana, non-epsilon group; construct provided by Prof; Robert J. Ferl; source: E. coli C41(DE3), purified (IMAC, thrombin cleavage of the His6-tag, subtractive IMAC, preparative SEC; aliquots before preparative SEC for SEC-MALS)
B4: Arabidopsis thaliana 14-3-3 nu (natural protein, UniProt Q96300 1-265, looked up)
chain: MSSSREENVYLAKLAEQAERYEEMVEFMEKVAKTVDTDELTVEERNLLSVAYKNVIGARRASWRIISSIEQKEESRGNDDHVSIIKDYRGKIETELSKICDGILNLLDSHLVPTASLAESKVFYLKMKGDYHRYLAEFKTGAERKEAAESTLVAYKSAQDIALADLAPTHPIRLGLALNFSVFYYEILNSPDRACSLAKQAFDEAISELDTLGEESYKDSTLIMQLLRDNLTLWNSDINDEAGGDEIKEASKHEPEEGKPAETGQ
notes: 14-3-3 nu, Arabidopsis thaliana (Col-0), non-epsilon group; source: E. coli BL21(DE3), purified (IMAC, thrombin cleavage of the His6-tag, subtractive IMAC, preparative SEC; aliquots before preparative SEC for SEC-MALS)
B5: Arabidopsis thaliana 14-3-3 omega (natural protein)
chain: MASGREEFVYMAKLAEQAERYEEMVEFMEKVSAAVDGDELTVEERNLLSVAYKNVIGARRASWRIISSIEQKEESRGNDDHVTAIREYRSKIETELSGICDGILKLLDSRLIPAAASGDSKVFYLKMKGDYHRYLAEFKTGQERKDAAEHTLAAYKSAQDIANAELAPTHPIRLGLALNFSVFYYEILNSPDRACNLAKQAFDEAIAELDTLGEESYKDSTLIMQLLRDNLTLWTSD
notes: 14-3-3 omega, Arabidopsis thaliana, non-epsilion group; pET28a construct obtained by gene synthesis; source: E. coli BL21(DE3), purified (IMAC, thrombin cleavage of the His6-tag, subtractive IMAC, preparative SEC; aliquots before preparative SEC for SEC-MALS)
B6: Arabidopsis thaliana 14-3-3 epsilon (natural protein, UniProt P48347 1-254, looked up)
chain: MENEREKQVYLAKLSEQTERYDEMVEAMKKVAQLDVELTVEERNLVSVGYKNVIGARRASWRILSSIEQKEESKGNDENVKRLKNYRKRVEDELAKVCNDILSVIDKHLIPSSNAVESTVFFYKMKGDYYRYLAEFSSGAERKEAADQSLEAYKAAVAAAENGLAPTHPVRLGLALNFSVFYYEILNSPESACQLAKQAFDDAIAELDSLNEESYKDSTLIMQLLRDNLTLWTSDLNEEGDERTKGADEPQDEN
notes: 14-3-3 epsilon, Arabidopsis thaliana, epsilon group; pET28a construct obtained by gene synthesis; source: E. coli BL21(DE3), purified (IMAC, thrombin cleavage of the His6-tag, subtractive IMAC, preparative SEC; aliquots before preparative SEC for SEC-MALS)
B7: Arabidopsis thaliana 14-3-3 mu (natural protein, UniProt Q96299 1-263, looked up)
chain: MGSGKERDTFVYLAKLSEQAERYEEMVESMKSVAKLNVDLTVEERNLLSVGYKNVIGSRRASWRIFSSIEQKEAVKGNDVNVKRIKEYMEKVELELSNICIDIMSVLDEHLIPSASEGESTVFFNKMKGDYYRYLAEFKSGNERKEAADQSLKAYEIATTAAEAKLPPTHPIRLGLALNFSVFYYEIMNAPERACHLAKQAFDEAISELDTLNEESYKDSTLIMQLLRDNLTLWTSDISEEGGDDAHKTNGSAKPGAGGDDAE
notes: 14-3-3 mu, Arabidopsis thaliana, epsilon group; pET28a construct obtained by gene synthesis; source: E. coli BL21(DE3), purified (IMAC, thrombin cleavage of the His6-tag, subtractive IMAC, preparative SEC; aliquots before preparative SEC for SEC-MALS)
B8: Arabidopsis thaliana 14-3-3 iota (natural protein, UniProt Q9C5W6 1-268, looked up)
chain: MSSSGSDKERETFVYMAKLSEQAERYDEMVETMKKVARVNSELTVEERNLLSVGYKNVIGARRASWRIMSSIEQKEESKGNESNVKQIKGYRQKVEDELANICQDILTIIDQHLIPHATSGEATVFYYKMKGDYYRYLAEFKTEQERKEAAEQSLKGYEAATQAASTELPSTHPIRLGLALNFSVFYYEIMNSPERACHLAKQAFDEAIAELDTLSEESYKDSTLIMQLLRDNLTLWTSDLPEDGGEDNIKTEESKQEQAKPADATEN
notes: 14-3-3 iota, Arabidopsis thaliana, epsilon group; pET28a construct obtained by gene synthesis; also called iota WT; source: E. coli BL21(DE3), purified (IMAC, thrombin cleavage of the His6-tag, subtractive IMAC, preparative SEC; aliquots before preparative SEC for SEC-MALS)
B9: Arabidopsis thaliana 14-3-3 upsilon (natural protein, UniProt P42645 1-268, looked up)
chain: MSSDSSREENVYLAKLAEQAERYEEMVEFMEKVAKTVETEELTVEERNLLSVAYKNVIGARRASWRIISSIEQKEDSRGNSDHVSIIKDYRGKIETELSKICDGILNLLEAHLIPAASLAESKVFYLKMKGDYHRYLAEFKTGAERKEAAESTLVAYKSAQDIALADLAPTHPIRLGLALNFSVFYYEILNSSDRACSLAKQAFDEAISELDTLGEESYKDSTLIMQLLRDNLTLWTSDLNDEAGDDIKEAPKEVQKVDEQAQPPPSQ
notes: 14-3-3 upsilon, Arabidopsis thaliana (Col-0), non-epsilon group; source: E. coli BL21(DE3), purified (IMAC, thrombin cleavage of the His6-tag, subtractive IMAC, preparative SEC; aliquots before preparative SEC for SEC-MALS)
B10: Arabidopsis thaliana 14-3-3 psi (natural protein, UniProt P42644 1-255, looked up)
chain: MSTREENVYMAKLAEQAERYEEMVEFMEKVAKTVDVEELSVEERNLLSVAYKNVIGARRASWRIISSIEQKEESKGNEDHVAIIKDYRGKIESELSKICDGILNVLEAHLIPSASPAESKVFYLKMKGDYHRYLAEFKAGAERKEAAESTLVAYKSASDIATAELAPTHPIRLGLALNFSVFYYEILNSPDRACSLAKQAFDDAIAELDTLGEESYKDSTLIMQLLRDNLTLWTSDMTDEAGDEIKEASKPDGAE
notes: 14-3-3 psi, Arabidopsis thaliana, non-epsilon group; construct provided by Prof; Robert J. Ferl; source: E. coli C41(DE3), purified (IMAC, thrombin cleavage of the His6-tag, subtractive IMAC, preparative SEC; aliquots before preparative SEC for SEC-MALS)
B11: Arabidopsis thaliana 14-3-3 iota T32F (natural protein, UniProt Q9C5W6 1-268, looked up)
chain: B8 chain with T32F
notes: 14-3-3 iota, Arabidopsis thaliana, single mutant T32F made by megaprimer PCR on pET28a-14-3-3 iota; Same limits as m9; also called M1; source: E. coli BL21(DE3), purified (IMAC, thrombin cleavage of the His6-tag, subtractive IMAC, preparative SEC)
B12: Arabidopsis thaliana 14-3-3 iota N84H (natural protein, UniProt Q9C5W6 1-268, looked up)
chain: B8 chain with N84H
notes: 14-3-3 iota, Arabidopsis thaliana, single mutant N84H made by megaprimer PCR on pET28a-14-3-3 iota; Same limits as m9; also called M2; source: E. coli BL21(DE3), purified (IMAC, thrombin cleavage of the His6-tag, subtractive IMAC, preparative SEC)
B13: Arabidopsis thaliana 14-3-3 iota G54A (natural protein, UniProt Q9C5W6 1-268, looked up)
chain: B8 chain with G54A
notes: 14-3-3 iota, Arabidopsis thaliana, single mutant G54A made by megaprimer PCR on pET28a-14-3-3 iota; Same limits as m9; also called M3; source: E. coli BL21(DE3), purified (IMAC, thrombin cleavage of the His6-tag, subtractive IMAC, preparative SEC)

Target: the molecule itself
Assay: SEC-MALS; Superdex 200 Increase 10/300, 0.8 ml/min; 65 µl of ~3 mg/ml or 100 μM per monomer loaded; 20 mM Tris-HCl pH 7.5, 150 mM NaCl, 5 mM βME, 3 mM NaN3; samples before preparative SEC; self-association, monomers to dimer (small tetramer peak for six isoforms)

| Protein | stoichiometry N |
| --- | --- |
| B1 | 2 |
| B2 | 2 |
| B3 | 2 |
| B4 | 2 |
| B5 | 2 |
| B6 | 2 |
| B7 | 2 |
| B8 | 2 |
| B9 | 2 |
| B10 | 2 |

Target: the molecule itself
Assay: native gel or EMSA; native PAGE, Tris-glycine pH 8.6, 15% or 15-25% gradient acrylamide, 2 h at room temperature, samples 0.33 mg/ml in SEC buffer; self-association, dimer to monomers

| Protein | binding result |
| --- | --- |
| B11 | binds |
| B12 | binds |
| B13 | binds |
